± gives the standard error. This sample holds only a part of the variants without activity.
B1: glmS ribozyme (parent)
chain: AUAAAAGCGCCAGAACUACAGAAAUGUAGUUGACGAGGAGGAGGUUUAUCGAAUUUUCGGCGGAUGCCUCCAAA

How the values were obtained:
Conditions in all cases: with glucosamine-6-phosphate
glucosamine-6-phosphate [1] = variants of: B1; assay: self-cleavage kobs at 40 uM GlcN6P; higher = faster cleavage; RNA array
Method in brief: (§1)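 A hybridised Cy3 probe tracked barcoded ribozyme variants, transcribed in situ by E. coli RNA polymerase on sequenced MiSeq chips, at 37 °C. The variants received 40 μM to 10 mM glucosamine-6-phosphate in HEPES/KCl/Mg(OAc)2 buffer. kobs came from decay fits and kcat and KM from weighted Michaelis–Menten fits.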

glucosamine-6-phosphate [2] = variants of: B1; assay: self-cleavage kobs at 640 uM GlcN6P; higher = faster cleavage; RNA array
Method in brief: as §1

glucosamine-6-phosphate [3] = variants of: B1; assay: self-cleavage kobs at 2500 uM GlcN6P; higher = faster cleavage; RNA array
Method in brief: as §1

glucosamine-6-phosphate [4] = variants of: B1; assay: self-cleavage kobs at 160 uM GlcN6P; higher = faster cleavage; RNA array
Method in brief: as §1

glucosamine-6-phosphate [5] = variants of: B1; assay: self-cleavage kobs at 10000 uM GlcN6P; higher = faster cleavage; RNA array
Method in brief: as §1

Row | Variant | self-cleavage kobs at 40 uM GlcN6P (glucosamine-6-phosphate [1]) | self-cleavage kobs at 640 uM GlcN6P (glucosamine-6-phosphate [2]) | self-cleavage kobs at 2500 uM GlcN6P (glucosamine-6-phosphate [3]) | self-cleavage kobs at 160 uM GlcN6P (glucosamine-6-phosphate [4]) | self-cleavage kobs at 10000 uM GlcN6P (glucosamine-6-phosphate [5])
1 | G32C C70G C71G | 7.5e-05 ± 3.3e-05 s⁻¹ | 0.000291 ± 9.2e-05 s⁻¹ | 7.37e-05 ± 3.4e-05 s⁻¹ | – | –
2 | A33G G37U U46G A52G G62A | < 1e-05 s⁻¹ | – | – | – | –
3 | U30C U69G | 3.65e-05 ± 1.2e-05 s⁻¹ | 0.000119 ± 2.8e-05 s⁻¹ | 5.46e-05 ± 1.1e-05 s⁻¹ | 7.31e-05 ± 1.5e-05 s⁻¹ | 2.39e-05 ± 1.1e-05 s⁻¹
4 | G7C A64G | < 1e-05 s⁻¹ | < 1e-05 s⁻¹ | < 1e-05 s⁻¹ | < 1e-05 s⁻¹ | –
5 | G7C A64U | < 1e-05 s⁻¹ | – | < 1e-05 s⁻¹ | – | < 1e-05 s⁻¹
6 | G44U C50U C67G | < 1e-05 s⁻¹ | – | – | – | –
7 | A42U U49G C68G | < 1e-05 s⁻¹ | – | – | – | –
8 | U30C A48C | < 1e-05 s⁻¹ | < 1e-05 s⁻¹ | < 1e-05 s⁻¹ | < 1e-05 s⁻¹ | < 1e-05 s⁻¹
9 | G29U U46G C50U G60U G66U | < 1e-05 s⁻¹ | – | – | – | –
10 | U45C G60U | < 1e-05 s⁻¹ | < 1e-05 s⁻¹ | – | < 1e-05 s⁻¹ | < 1e-05 s⁻¹
11 | G26A A39U G40C | 5.34e-05 ± 1.4e-05 s⁻¹ | 0.000262 ± 8.2e-05 s⁻¹ | 0.000935 ± 0.00028 s⁻¹ | – | –
12 | C10A G13U G37U G60A U65A | < 1e-05 s⁻¹ | < 1e-05 s⁻¹ | – | – | < 1e-05 s⁻¹
13 | C11U C34U | < 1e-05 s⁻¹ | < 1e-05 s⁻¹ | – | – | < 1e-05 s⁻¹
14 | G13U G51U | < 1e-05 s⁻¹ | – | < 1e-05 s⁻¹ | < 1e-05 s⁻¹ | < 1e-05 s⁻¹
15 | C11U A36G | < 1e-05 s⁻¹ | < 1e-05 s⁻¹ | < 1e-05 s⁻¹ | < 1e-05 s⁻¹ | –
16 | A14G A53G C58U U65C C71U | < 1e-05 s⁻¹ | – | – | – | –
17 | G63U A64C C67G C70U | < 1e-05 s⁻¹ | < 1e-05 s⁻¹ | – | – | < 1e-05 s⁻¹
18 | G13A U47A G60U | < 1e-05 s⁻¹ | < 1e-05 s⁻¹ | – | < 1e-05 s⁻¹ | < 1e-05 s⁻¹
19 | A14C U31C A39U | 2.48e-05 ± 1.1e-05 s⁻¹ | – | – | – | 0.00132 ± 0.00031 s⁻¹
20 | G32A C50G G51A | < 1e-05 s⁻¹ | – | – | – | –
21 | C8G G9U | < 1e-05 s⁻¹ | < 1e-05 s⁻¹ | < 1e-05 s⁻¹ | – | –
22 | G9U A33U A53U C61G | < 1e-05 s⁻¹ | – | – | – | –
23 | G7U G35U U46A C67U U69C | < 1e-05 s⁻¹ | < 1e-05 s⁻¹ | < 1e-05 s⁻¹ | < 1e-05 s⁻¹ | –
24 | A12C A42U C58U | < 1e-05 s⁻¹ | – | – | – | –

— the supplement of paper PMC7125110
